In PMC11552096 (Journal of molecular biology, 2020):
Changes are numbered by the printed parent chain. Numbers in names are those of the source.

B1: hsSUN2_(522-717), wild type, as crystallised with KASH4 (domain or fragment, human, UniProt Q9UH99 522-717, looked up)
chain: GVTEEQVHHIVKQALQRYSEDRIGLADYALESGGASVISTRCSETYETKTALLSLFGIPLWYHSQSPRVILQPDVHPGNCWAFQGPQGFAVVRLSARIRPTAVTLEHVPKALSPNSTISSAPKDFAIFGFDEDLQQEGTLLGKFTYDQDGEPIQTFHFQAPTMATYQVVELRILTNWGHPEYTCIYRFRVHGEPAH
B2: hsSUN2_(522-717) with 4 surface point mutations Q534D, T683G, M684R, A685G (domain or fragment, human, UniProt Q9UH99 522-717, looked up)
chain: B1 chain with Q13D, T162G, M163R, A164G
B3: apo-SUN2_(500-717) (domain or fragment, human, UniProt Q9UH99 500-717, looked up)
chain: QGKSAREAAASLSLTLQKEGVIGVTEEQVHHIVKQALQRYSEDRIGLADYALESGGASVISTRCSETYETKTALLSLFGIPLWYHSQSPRVILQPDVHPGNCWAFQGPQGFAVVRLSARIRPTAVTLEHVPKALSPNSTISSAPKDFAIFGFDEDLQQEGTLLGKFTYDQDGEPIQTFHFQAPTMATYQVVELRILTNWGHPEYTCIYRFRVHGEPAH

Molecular target: the molecule itself
Assay: crystal structure

Stoichiometry N, 3:
B1
B2
B3
